Measured values taken from the supplement of paper PMC7877785.
± gives the uncertainty stated by the source.

Assay: self-splicing fitness, log relative to wild type (ln ratio); higher = more splicing; Tetrahymena group I intron in knt gene, E. coli kanamycin selection, DiMSum; sequences stand for … in CUCUCU…GGAGGGAAAAGUUAUCAGGCAUGCACCUGGUAGCUAGUCUUUAAACCAAUAGAUUGCAUCGGUUUAAAAGGCAAGACCGUCAAAUUGCGGGAAAGGGGUCAACAGCCGUUCAGUACCAAGUCUCAGGGGAAACUUUGAGAUGGCCUUGCAAAGGGUAUGGUAAUAAGCUGACGGACAUGGUCCUAACCACGCAGCCAAGUCCUAAGUCAACAGAUCUUCUGUUGAUAUGGAUGCAGUUCACAGACUAAAUGUCGGUCGGGGAAGAUGUAUUCUUCUCAUAAGAUAUAGUCGGACCUCUCCUUAAUGGGAGCUAGCGGAUGAAGUGAUGCAACACUGGAGCCGCUGGGAACUAAUUUGUAUGCGAAAGUAUAUUGAUUAGUUUUGGAGUACUCGUGGUCG
In short: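 Fitness was computed with DiMSum as the error-weighted combination of replicate fold changes, kanamycin versus none, each normalised to wild type. The library randomised all eight intron nucleotides of the P1ex region, with the intron placed in the knt kanamycin-resistance gene on pET-22b(+) in E. coli BL21(DE3). Six replicate transformations were grown overnight at 37°C or 30°C on LB agar with or without 25 μg/mL kanamycin, plus 100 μg/mL carbenicillin, 50 μM IPTG and 0.2% rhamnose. Pooled colonies were amplicon-sequenced on an Illumina HiSeq 2500.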

Row | Sequence | self-splicing fitness (ln) (30 °C) | self-splicing fitness (ln) (37 °C)
1 | UUCCAGCAAUAUUACGAUGC | -3.4 ± 0.23 | -2.79 ± 0.23
2 | UUCCAGCAAUAUUACGCCCC | -2.4 ± 0.25 | –
3 | UUCCAGCAAUAUUACGCCCG | -1.33 ± 0.15 | -1.23 ± 0.17
4 | UUCCAGCAAUAUUACGCCGA | -0.126 ± 0.13 | 0.309 ± 0.16
5 | UUCCAGCAAUAUUACGCCGG | -3.4 ± 0.33 | -2.98 ± 0.48
6 | UUCCAGCAAUAUUACGCGCU | -3.9 ± 0.3 | –
7 | UUCCAGCAAUAUUACGCGGC | -3.73 ± 0.47 | -1.38 ± 0.4
8 | UUCCAGCAAUAUUACGCUAG | -2.89 ± 0.17 | -1.96 ± 0.2
9 | UUCCAGCAAUAUUACGCUCU | -3.04 ± 0.17 | -1.26 ± 0.14
10 | UUCCAGCAAUAUUACGGAAA | -1.86 ± 0.13 | -1.34 ± 0.11
11 | UUCCAGCAAUAUUACGGCCG | -2.49 ± 0.29 | -0.492 ± 0.24
12 | UUCCAGCAAUAUUACGGCGA | -0.331 ± 0.076 | -0.0354 ± 0.097
13 | UUCCAGCAAUAUUACGGCGU | -1.42 ± 0.079 | -1.19 ± 0.091
14 | UUCCAGCAAUAUUACGGUGA | -0.226 ± 0.061 | 0.234 ± 0.077
15 | UUCCAGCAAUAUUACGUAAC | -2.44 ± 0.25 | -2.08 ± 0.38
16 | UUCCAGCAAUAUUACGUCGG | -3.28 ± 0.23 | -3.13 ± 0.4
17 | UUCCAGCAAUAUUACGUGAA | 0.179 ± 0.072 | -0.102 ± 0.094
18 | UUCCAGCAAUAUUACGUGCG | -1.88 ± 0.1 | -1.59 ± 0.11
19 | UUCCAGCAAUAUUACGUGUC | -2.18 ± 0.086 | -1.48 ± 0.098
20 | UUCCAGCAAUAUUACGUUAA | -1.16 ± 0.079 | 0.606 ± 0.093
21 | UUCCAGCAAUAUUACGUUCG | -2.67 ± 0.16 | -1.7 ± 0.23
22 | UUCCAGCAAUAUUACGUUGU | -2.93 ± 0.21 | -2.74 ± 0.27
23 | UUCGAGCAAUAUUACGAAUG | -3.37 ± 0.47 | -2.26 ± 0.31
24 | UUCGAGCAAUAUUACGAGAG | -3.55 ± 0.44 | -2.72 ± 0.48
25 | UUCGAGCAAUAUUACGAGCC | -3.05 ± 0.21 | -2.68 ± 0.36
26 | UUCGAGCAAUAUUACGAGUG | -1.81 ± 0.17 | -0.223 ± 0.15
27 | UUCGAGCAAUAUUACGCCCA | -2.1 ± 0.31 | -1.15 ± 0.22

Row | Sequence | self-splicing fitness (ln) (30 °C) | self-splicing fitness (ln) (37 °C)
28 | UUCGAGCAAUAUUACGCCUC | -3.3 ± 0.4 | -1.3 ± 0.4
29 | UUCGAGCAAUAUUACGCGAC | -3.69 ± 0.32 | -1.18 ± 0.19
30 | UUCGAGCAAUAUUACGGCCA | – | -0.028 ± 0.31
31 | UUCGAGCAAUAUUACGGCCG | – | -1.41 ± 0.35
32 | UUCGAGCAAUAUUACGGCCU | -3.17 ± 0.33 | -2.84 ± 0.35
33 | UUCGAGCAAUAUUACGGGCC | -3.79 ± 0.32 | -2.21 ± 0.33
34 | UUCGAGCAAUAUUACGGGGA | -1.7 ± 0.18 | -0.829 ± 0.19
35 | UUCGAGCAAUAUUACGGGGG | -2.88 ± 0.3 | -2.23 ± 0.42
36 | UUCGAGCAAUAUUACGUAAA | -2.48 ± 0.19 | -1.07 ± 0.16
37 | UUCGAGCAAUAUUACGUAAU | -2.06 ± 0.26 | -1.9 ± 0.36
38 | UUCGAGCAAUAUUACGUAGA | -3.11 ± 0.16 | -1.97 ± 0.17
39 | UUCGAGCAAUAUUACGUCAA | -1.54 ± 0.2 | -2.38 ± 0.37
40 | UUCGAGCAAUAUUACGUCCU | -3.78 ± 0.47 | -2.4 ± 0.41
41 | UUCGAGCAAUAUUACGUGAA | -1.55 ± 0.27 | 1.01 ± 0.28
42 | UUCGAGCAAUAUUACGUGGU | -3.49 ± 0.28 | -3.18 ± 0.2
43 | UUCUAGCAAUAUUACGAACA | – | -0.35 ± 0.37
44 | UUCUAGCAAUAUUACGACUA | -1.83 ± 0.31 | -1.19 ± 0.21
45 | UUCUAGCAAUAUUACGAUGA | -0.819 ± 0.19 | -0.0657 ± 0.2
46 | UUCUAGCAAUAUUACGAUGG | -2.49 ± 0.19 | -1.02 ± 0.34
47 | UUCUAGCAAUAUUACGAUUC | -1.98 ± 0.34 | -2.5 ± 0.49
48 | UUCUAGCAAUAUUACGCACU | -1.79 ± 0.29 | -1.69 ± 0.38
49 | UUCUAGCAAUAUUACGCAGG | -3.52 ± 0.4 | –
50 | UUCUAGCAAUAUUACGCCGA | -0.96 ± 0.23 | 0.163 ± 0.25
51 | UUCUAGCAAUAUUACGCGAC | -1.97 ± 0.38 | –
52 | UUCUAGCAAUAUUACGCGGG | -3.28 ± 0.23 | -2.29 ± 0.22
53 | UUCUAGCAAUAUUACGCGUC | -3.14 ± 0.39 | -1.45 ± 0.25
54 | UUCUAGCAAUAUUACGCUUA | -1.24 ± 0.12 | -0.839 ± 0.14

Row | Sequence | self-splicing fitness (ln) (30 °C) | self-splicing fitness (ln) (37 °C)
55 | UUCUAGCAAUAUUACGCUUU | -3.89 ± 0.26 | -1.82 ± 0.22
56 | UUCUAGCAAUAUUACGGAAA | – | -1.4 ± 0.45
57 | UUCUAGCAAUAUUACGGAUU | -2.7 ± 0.15 | -0.761 ± 0.14
58 | UUCUAGCAAUAUUACGGCUG | -2.38 ± 0.21 | -1.6 ± 0.2
59 | UUCUAGCAAUAUUACGGGAA | -2.38 ± 0.19 | -2.8 ± 0.28
60 | UUCUAGCAAUAUUACGUAUC | -3.32 ± 0.27 | -2.05 ± 0.22
61 | UUCUAGCAAUAUUACGUCCA | -2.13 ± 0.19 | -0.134 ± 0.17
62 | UUCUAGCAAUAUUACGUCUA | -3.64 ± 0.26 | -2.2 ± 0.17
63 | UUCUAGCAAUAUUACGUUGG | -2.65 ± 0.24 | –
64 | UUGAAGCAAUAUUACGAACA | 0.602 ± 0.15 | -0.488 ± 0.23
65 | UUGAAGCAAUAUUACGAAUC | -3.58 ± 0.37 | -2.12 ± 0.32
66 | UUGAAGCAAUAUUACGACAG | 0.483 ± 0.091 | 0.232 ± 0.11
67 | UUGAAGCAAUAUUACGACCA | -0.132 ± 0.12 | 0.61 ± 0.15
68 | UUGAAGCAAUAUUACGACUC | -1.26 ± 0.079 | -0.526 ± 0.11
69 | UUGAAGCAAUAUUACGACUU | -1.37 ± 0.14 | 0.101 ± 0.17
70 | UUGAAGCAAUAUUACGAGUA | -1.83 ± 0.077 | -0.59 ± 0.085
71 | UUGAAGCAAUAUUACGAUCU | -1.3 ± 0.13 | -0.67 ± 0.14
72 | UUGAAGCAAUAUUACGCACG | -0.255 ± 0.15 | -0.521 ± 0.15
73 | UUGAAGCAAUAUUACGCACU | -0.156 ± 0.091 | 0.362 ± 0.1
74 | UUGAAGCAAUAUUACGCCGG | -0.0467 ± 0.11 | 0.0153 ± 0.15
75 | UUGAAGCAAUAUUACGCCGU | -1.33 ± 0.15 | -0.893 ± 0.18
76 | UUGAAGCAAUAUUACGCUAC | – | -1.75 ± 0.37
77 | UUGAAGCAAUAUUACGCUUG | -1.02 ± 0.064 | -0.679 ± 0.087
78 | UUGAAGCAAUAUUACGGAAA | -0.265 ± 0.1 | -0.0838 ± 0.14
79 | UUGAAGCAAUAUUACGGAGG | -0.866 ± 0.11 | -0.64 ± 0.14
